{"source": "patent US7645871B2", "about": "“Tumor inhibition by modulating sprouty expression of activity” (Michigan State University, priority 2005, dated 2010)", "molecules": {"B1": {"name": "Spry2-shRNA-2: Sprouty2-specific shRNA construct targeting position 399 of the Spry2 coding region; PH3MT-2A3 and PH3MT-2B9 cell strains were derived with it (nucleic acid)", "chain": "GATCCCCGAGACTGCTAGGATCATCCTTCAAGAGAGGAGTGATCCTAGCAGCTCTTTTTGGAAA"}, "B2": {"name": "Spry2-shRNA-5: Sprouty2-specific shRNA construct targeting position 492 of the Spry2 coding region; PH3MT-5A3 cell strain was derived with it (nucleic acid)", "chain": "GATCCCCGCCACTGAGCAAGGAAGATTTCAAGAGAATCTTCCTTGCTCAGTGGCTTTTTGGAAA"}}, "key": {"PH3MT cells [1]": {"system": "PH3MT cells", "assay": "AG1478 inhibitor study, cell growth in 0.1% serum", "assay_type": "cell-based, human", "procedure": "For AG1478 inhibitor studies, cells were plated at a density of 5,000 cells per 60 mm-diameter dish in medium containing 0.1% serum, and were allowed to grow in the presence or absence of AG1478 at a concentration of 6 μM. Cell growth was monitored by measuring the number of cells every two days. Each experimental repetition included at least two replicates for each cell strain analyzed.\nThe activation of Ras oncogenes enables cellular growth in the absence of exogenous growth factors (Medema et al. (1993) Crit. Rev. Oncog. 4; Shields et al. (2000) Trends Cell. Biol. 10: 147-154). To determine if the activity of EGFR is necessary for the growth factor independence of H-Ras-transformed cells, measurements were made to determine the ability of PH3MT cells to grow in the presence of the AG1478 inhibitor, a specific inhibitor of EGFR tyrosine kinase activity (Levitzki et al. (1995) Science 267:1782-1788)."}, "[2]": {"system": "HRas-transformed cells (PH3MT)", "assay": "UV-induced apoptosis assay (AnnexinV-FITC, flow cytometry)", "assay_type": "cell-based, human", "settings": "Ras-transformed cells treated with AG1478", "procedure": "Apoptosis was detected by staining the cells with AnnexinV-FITC (BD Biosciences, San Jose, Calif.) according to manufacturer's recommendations. Briefly, cells were plated at a density of 2×10^5 cells/60 mm-dish. 16 hours after plating, the cells were irradiated with UV at a dose of 30-60 J/m^2 and incubated at 37° C. under normal culture conditions for varying time periods. Subsequently, the cells were collected, washed twice with AnnexinV binding buffer and incubated with AnnexinV-FITC at room temperature for 15 mins. The cells were also stained with propidium iodide (PI) to distinguish between live and dead cells. AnnexinV-FITC positive cells were determined by flow cytometry under standard conditions. Cells that stained positively for AnnexinV were considered apoptotic, while cells that were positive for both annexinV and PI were not considered apoptotic. All experiments were repeated at least three times. Ras protects NIH3T3 fibroblasts from apoptosis induced by DNA-damage (Franke et al. (2003) Oncogene 22:8983-98). Experiments were conducted to determine whether this effect was produced in an H-Ras-transformed cell strain (PH3MT), which has a higher expression of Spry2 compared to its parental cell strain (MSU-1.1) (FIG. 10A). In these experiments, both MSU-1.1 and PH3MT cells were plated at a density of 2×10^5 cells per dish and allowed to grow overnight. […]"}, "ERK": {"system": "ERK", "assay": "EGF-induced activation of ERK (pERK Western blot)", "assay_type": "cell-based, human", "settings": "serum starved, EGF 100 ng/ml; vs scrambled RNAi strain PH3MT-SC", "procedure": "Whole cell lysates were prepared as described in Lou et al. (2005) Cancer Res. 65:1007-1017. The protein content was quantified with Coomassie protein reagent from Pierce (Rockford, Ill.). Whole cell lysate (50 μg) was separated by SDS-PAGE. The protein was transferred to polyvinylidene fluoride membrane (Millipore, Billerica, Mass.), and immunoblotting was carried out using standard techniques. The signal was detected with the SuperSignal® reagent (Pierce). Antibodies against EGFR, ERK, pERK, c-Cbl, and H-Ras were purchased from Santa Cruz Biotechnology, Inc. (Santa Cruz, Calif.); Sprouty2 from Calbiochem (San Diego, Calif.); Pan-Ras from Cytoskeleton, Inc. (Denver, Colo.) and Ku80 from Serotec (Raleigh, N.C.). The Ku80 protein expression was used as a loading control.\nTo determine if the expression of Sprouty2 in PH3MT cells was associated with an increase in the activation of the RAS/MAPK cascade, EGF-induced activation of ERK was examined by Western blotting with a phosphorylation-specific antibody."}, "PH3MT cells [3]": {"system": "PH3MT cells", "assay": "Tumorigenicity assay in athymic mice", "assay_type": "in vivo", "settings": "one million cells per site s.c., at least 6 months", "procedure": "Cells were assayed for their ability to form tumors in athymic mice as described in Lou et al. (2005) Cancer Res. 65:1007-1017. The mice were examined weekly for tumor growth, and the tumors were removed when they reached 1 cm in diameter. In the absence of tumor formation six months after the injection, the mice were sacrificed.\nWhen these same cell strains were compared for their ability to form tumors in athymic mice (Table 1), the control cell strains (PH3MT-VC and PH3MT-SC) formed 0.5 cm^3 tumors in 21 days (12/12 tumors formed per cell strain)."}, "HRas/c-Cbl": {"system": "HRas/c-Cbl", "assay": "Co-immunoprecipitation of c-Cbl with HRas", "assay_type": "cell-based, human", "settings": "PH3MT-2A3 vs control cells, anti-HRas immunoprecipitation", "procedure": "Generally, in experiments employing immunoprecipitation, whole cell lysates (250 μg) were precleared with an appropriate IgG antibody for 30 mins., then incubated with an antibody specific to HRas for 2 hrs., followed by incubation with protein-G for 1 hr. to overnight at 4° C. When an Hras-agarose conjugate was used (Ras-cCbl/CIN85), the lysates were incubated with the agarose conjugate for 3 hrs. to overnight. The immunoprecipitated fraction was washed several times with lysis buffer and assayed by Western blotting. Experiments were generally conducted in replicate, e.g., experiments were repeated 3 to 4 times for those examining Ras-Spry2 and Ras-c-Cbl interactions, and two times for those examining the Ras-CIN85 interaction."}, "Rac1": {"system": "Rac1", "assay": "Rac1 activation assay (PAK-CRIB pull-down)", "assay_type": "cell-based, human", "settings": "PH3MT-SC (endogenous Spry2) vs PH3MT-2A3", "procedure": "Pull-down assays were performed using whole cell lysates (2 mg). The lysates were pulled down with PAK-Cdc42/Rac1 interacting region (CRIB)-conjugated beads from Cytoskeleton (Denver, Colo.) using methods provided by the manufacturer. […] These experiments were repeated 3 times in H-Ras-transformed cells and twice in immortalized fibroblasts.\nTo determine whether Spry2 plays a role in the activation of Rac1, a Rac1 activation assay was carried out to determine the level of activated Rac1 in control HRas-transformed cells (PH3MT-SC) and in HRas-transformed cells with down regulated Spry2 (PH3MT-2A3)."}, "PH3MT cells [4]": {"system": "PH3MT cells", "assay": "Stress fiber staining (phalloidin)", "assay_type": "cell-based, human", "settings": "PH3MT-2A3 vs PH3MT-SC", "procedure": "Stress fibers were detected with Alexa-fluor 488 conjugated phalloidin stain from Invitrogen (Carlsbad, Calif.), which was used according to the manufacturer's instructions. Briefly, cells at log phase were fixed in 10% normal buffered formalin solution for 10 mins. The fixed cells were washed twice in phosphate buffered saline (PBS), and then treated with 0.1 Triton X-100 in PBS for 3-5 mins. at room temperature. Subsequently, the cells were incubated with blocking solution (1% BSA in PBS) for 20 mins. at room temperature. Finally, the cells were incubated with phalloidin stain for 30 mins. and analyzed by fluorescent microscopy.\nOne function of Rac1 is to inhibit stress fiber formation (Burridge et al. (2004) Cell 116(2): 167-179). […] This is consistent with the lower level of Rac1 activation in these cells (FIG. 12B). Accordingly, one assay that can be used to analyze the effects of a compound that affects Spry2 expression or activity is to assay stress fiber formation in the presence and absence or a compound in a cell that can express Rac1."}, "MDM2": {"system": "MDM2", "assay": "MDM2 level and Ser166 phosphorylation, Western blot", "assay_type": "cell-based, human", "settings": "PH3MT-2A3 vs PH3MT-SC", "procedure": "(§1) Whole cell lysates were prepared as described in Lou et al. ((2005) Cancer Res. 65:1007-1017). Protein concentration was quantified with Coomasie protein reagent from Pierce (Rockford, Ill.). Whole cell lysates (50 μg) were separated by SDS-PAGE. The electrophoresed proteins were transferred to a polyvinylidene fluoride membrane (Millipore, Billerca, Mass.), and immunoblotted using standard techniques. Antibodies against pp 85, p85, c-Cbl, Mdm2, p53 and H-Ras were purchased form Santa Cruz (Santa Cruz, Calif.); Spry2 from Calbiochem (San Diego, Calif.); pAkt and Akt from Cell Signaling (Danver, Mass.) and Ku80 from Serotec (Raleigh, N.C.). Ku80 protein was used as a loading control. Label signals were detected with the SuperSignal reagent (Pierce, Rockford, Ill.).\n(§2) The MDM2/p53 pathway plays a critical role in UV-induced apoptosis (Lakin et al. (1999) Oncogene 18(53):7644-7655). Akt phosphorylates MDM2 on serine residue 166, resulting in the stabilization of MDM2 (Ogawara et al. (2002) J. Biol. Chem., 277(24):21843-21850). This enhances the ubiquitination of p53 by MDM2, which is followed by degradation of the p53. […] To test this proposal, the amount of MDM2 phosphorylated at Ser166 was determined in a cell strain with down regulated Spry2 (PH3MT-2A3) and in a control cell strain (PH3MT-SC). […]"}, "p53": {"system": "p53", "assay": "p53 level, Western blot", "assay_type": "cell-based, human", "settings": "PH3MT-2A3 vs PH3MT-SC", "procedure": "as §1, §2"}}}
{"molecule": "COc1cc2ncnc(Nc3cccc(Cl)c3)c2cc1OC", "note": "[AG1478]", "values": [{"measurement": "ability of cells to grow in medium with reduced serum", "setting": "PH3MT cells [1]; PH3MT cells, 0.1% serum, AG1478 6 μM", "value": "decrease in the ability of H-Ras-transformed cells to grow in medium with reduced serum"}, {"measurement": "decrease in growth compared with effect on MSU-1.1 cells", "setting": "PH3MT cells [1]; PH3MT vs MSU-1.1, AG1478 6 μM, p<0.001", "value": "significantly greater than the corresponding effect of the same inhibitor on the MSU-1.1 cells"}, {"measurement": "number of cells undergoing apoptosis in response to UV radiation", "setting": "[2]", "value": "increased the number of Ras-transformed cells undergoing apoptosis"}]}
{"molecule": "B1", "values": [{"measurement": "EGF-induced ERK activation", "setting": "ERK", "value": "decreased levels of ERK activation"}, {"measurement": "Tumor incidence (ratio of tumors formed to sites injected)", "setting": "PH3MT cells [3]; cell strain PH3MT-2A3 (derived with Spry2-shRNA-2)", "value": "0/12"}, {"measurement": "Tumor incidence (ratio of tumors formed to sites injected)", "setting": "PH3MT cells [3]; cell strain PH3MT-2B9 (derived with Spry2-shRNA-2)", "value": "0/12"}, {"measurement": "binding of endogenous c-Cbl to HRas", "setting": "HRas/c-Cbl", "value": "abolished"}, {"measurement": "level of active Rac1", "setting": "Rac1", "value": "significantly higher level of active Rac1, compared to cell strain with down-regulated Spry2 expression"}, {"measurement": "stress fiber formation", "setting": "PH3MT cells [4]", "value": "more pronounced stress fibers"}, {"measurement": "level of MDM2 following UV treatment", "setting": "MDM2", "value": "decrease in the level of MDM2 following UV treatment"}, {"measurement": "level of p53 following UV treatment", "setting": "p53", "value": "higher"}]}
{"molecule": "B2", "values": [{"measurement": "Tumor incidence (ratio of tumors formed to sites injected)", "setting": "PH3MT cells [3]; cell strain PH3MT-5A3 (derived with Spry2-shRNA-5)", "value": "0/12"}]}
